# Assay results as given in the supplement of paper PMC7877785.
# ± gives the uncertainty stated by the source.
# Test: self-splicing fitness, log relative to wild type (ln ratio); higher = more splicing; Tetrahymena group I intron in knt gene, E. coli kanamycin selection, DiMSum; sequences stand for … in CUCUCU…GGAGGGAAAAGUUAUCAGGCAUGCACCUGGUAGCUAGUCUUUAAACCAAUAGAUUGCAUCGGUUUAAAAGGCAAGACCGUCAAAUUGCGGGAAAGGGGUCAACAGCCGUUCAGUACCAAGUCUCAGGGGAAACUUUGAGAUGGCCUUGCAAAGGGUAUGGUAAUAAGCUGACGGACAUGGUCCUAACCACGCAGCCAAGUCCUAAGUCAACAGAUCUUCUGUUGAUAUGGAUGCAGUUCACAGACUAAAUGUCGGUCGGGGAAGAUGUAUUCUUCUCAUAAGAUAUAGUCGGACCUCUCCUUAAUGGGAGCUAGCGGAUGAAGUGAUGCAACACUGGAGCCGCUGGGAACUAAUUUGUAUGCGAAAGUAUAUUGAUUAGUUUUGGAGUACUCGUGGUCG
# Outline: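 A randomised library covering all eight P1ex-region intron nucleotides was built with the intron in the knt kanamycin-resistance gene on pET-22b(+) and held in E. coli BL21(DE3). Cells were grown overnight at 37°C or 30°C on LB agar, with or without 25 μg/mL kanamycin, plus 100 μg/mL carbenicillin, 50 μM IPTG and 0.2% rhamnose, and pooled colonies were amplicon-sequenced on an Illumina HiSeq 2500. DiMSum fitness is the error-weighted combination of wild-type-normalised replicate fold changes, kanamycin versus none.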
Sequence,self-splicing fitness (ln) (30 °C),self-splicing fitness (ln) (37 °C)
AUGUAGCAAUAUUACGUGCU,-1.29 ± 0.081,-0.985 ± 0.09
CCGAAGCAAUAUUACGUUCG,-3.33 ± 0.13,-1.26 ± 0.11
CAAGAGCAAUAUUACGUGAC,,-3.01 ± 0.18
ACUAAGCAAUAUUACGAUUG,-2.62 ± 0.13,-1.5 ± 0.14
GUAAAGCAAUAUUACGUUAA,-2 ± 0.093,-1.69 ± 0.14
GGUGAGCAAUAUUACGAUUG,-3.77 ± 0.39,-1.79 ± 0.4
CGCGAGCAAUAUUACGACAA,-2.72 ± 0.34,-2.28 ± 0.33
GUAAAGCAAUAUUACGCCCC,-0.801 ± 0.089,-0.0225 ± 0.12
GAUGAGCAAUAUUACGUCUA,-1.51 ± 0.31,-1.2 ± 0.25
AGCGAGCAAUAUUACGUAGA,-3.17 ± 0.24,-2.85 ± 0.29
CGGUAGCAAUAUUACGCACU,-1.64 ± 0.26,0.00723 ± 0.27
UAUUAGCAAUAUUACGAUAG,-0.949 ± 0.16,-0.79 ± 0.17
UGCCAGCAAUAUUACGGGGU,-3.57 ± 0.21,-2.48 ± 0.2
AACGAGCAAUAUUACGAUAC,-2.52 ± 0.37,-1.97 ± 0.46
CCAAAGCAAUAUUACGUCUU,-4.12 ± 0.21,-2.43 ± 0.14
CGCGAGCAAUAUUACGACAU,-3.853 ± 0.03,-2.77 ± 0.043
UCUCAGCAAUAUUACGGCGC,-2.56 ± 0.22,-1.78 ± 0.31
AUCUAGCAAUAUUACGUGGC,-2.58 ± 0.23,-2.92 ± 0.31
GAGUAGCAAUAUUACGACGG,-2.74 ± 0.2,-1.57 ± 0.25
CACUAGCAAUAUUACGGCGA,-2.43 ± 0.16,-1.61 ± 0.2
GUGAAGCAAUAUUACGUGGA,-3.07 ± 0.13,-1.24 ± 0.15
CUCCAGCAAUAUUACGGUUU,-2.02 ± 0.11,-2.39 ± 0.19
CAUAAGCAAUAUUACGGUGA,-3.65 ± 0.27,-2.36 ± 0.23
CCGAAGCAAUAUUACGACUG,-1.06 ± 0.12,0.835 ± 0.17
GCAUAGCAAUAUUACGCCGG,-3 ± 0.28,-1.01 ± 0.2
UCUCAGCAAUAUUACGAUCC,,-1.66 ± 0.37

Sequence,self-splicing fitness (ln) (30 °C),self-splicing fitness (ln) (37 °C)
AGGGAGCAAUAUUACGAAUG,-3.27 ± 0.3,-2.38 ± 0.39
ACGCAGCAAUAUUACGCACC,-0.334 ± 0.18,-0.22 ± 0.18
CGCUAGCAAUAUUACGCGAU,-3.59 ± 0.19,-2.25 ± 0.2
AAAAAGCAAUAUUACGCCAC,,-2.91 ± 0.47
GCGAAGCAAUAUUACGAAGU,-2.99 ± 0.35,-2.89 ± 0.26
CUAGAGCAAUAUUACGACCC,-1.62 ± 0.38,
UCACAGCAAUAUUACGGCGC,-2.08 ± 0.1,-1.02 ± 0.12
UACCAGCAAUAUUACGGCAA,-0.203 ± 0.067,0.462 ± 0.094
AGGAAGCAAUAUUACGUGCG,-1.01 ± 0.1,-1.04 ± 0.13
AUACAGCAAUAUUACGCAAA,-2.45 ± 0.21,-1.07 ± 0.18
CGACAGCAAUAUUACGUAGC,-3.61 ± 0.18,-2.21 ± 0.16
UCAGAGCAAUAUUACGGGAU,-3.39 ± 0.47,-2.58 ± 0.48
ACCUAGCAAUAUUACGAUCU,-0.35 ± 0.079,0.0427 ± 0.1
CGGUAGCAAUAUUACGGACU,-1.25 ± 0.16,-0.871 ± 0.2
AGGCAGCAAUAUUACGCUCG,-1.75 ± 0.091,-0.442 ± 0.12
GACCAGCAAUAUUACGACUU,0.432 ± 0.065,0.163 ± 0.076
AAAAAGCAAUAUUACGGCGU,-0.321 ± 0.078,0.208 ± 0.098
AGAUAGCAAUAUUACGCAAA,-2.81 ± 0.23,-1.75 ± 0.24
CAGGAGCAAUAUUACGCUAG,-1.28 ± 0.23,-1.1 ± 0.27
CACGAGCAAUAUUACGCGAC,,-2.76 ± 0.27
GAGGAGCAAUAUUACGGAAA,-3.13 ± 0.16,-2.94 ± 0.26
UCGGAGCAAUAUUACGAACA,-2.3 ± 0.21,-1.25 ± 0.21
GAACAGCAAUAUUACGUCAA,-1.14 ± 0.057,-0.166 ± 0.06
GUUUAGCAAUAUUACGCUCC,-1.82 ± 0.37,1.01 ± 0.34
GCGCAGCAAUAUUACGAUGC,-2.63 ± 0.17,-0.824 ± 0.17
CACGAGCAAUAUUACGAGAC,-2.99 ± 0.2,-1.89 ± 0.3

Sequence,self-splicing fitness (ln) (30 °C),self-splicing fitness (ln) (37 °C)
CUGAAGCAAUAUUACGAACA,-2.82 ± 0.41,-2.11 ± 0.23
CUAAAGCAAUAUUACGUAAU,-4.33 ± 0.29,-2.54 ± 0.23
AUACAGCAAUAUUACGACUG,-1.52 ± 0.077,-0.848 ± 0.097
UGUCAGCAAUAUUACGCUGA,-0.7 ± 0.23,-0.59 ± 0.27
GGCCAGCAAUAUUACGCUGG,-3.98 ± 0.27,-2.27 ± 0.24
GCAAAGCAAUAUUACGGUAG,-2.68 ± 0.14,-3.34 ± 0.23
GAACAGCAAUAUUACGCUCA,-1.23 ± 0.073,0.207 ± 0.1
UACGAGCAAUAUUACGCCAG,-3.79 ± 0.3,-2.88 ± 0.3
AGGAAGCAAUAUUACGUUGU,-3.98 ± 0.18,-2.82 ± 0.15
UGCCAGCAAUAUUACGACAC,-2.55 ± 0.35,-2.68 ± 0.38
GCGCAGCAAUAUUACGCAAC,-1.79 ± 0.14,-0.576 ± 0.18
GGAAAGCAAUAUUACGUUCA,0.00884 ± 0.082,0.0862 ± 0.13
AUAUAGCAAUAUUACGUGGC,,-2.67 ± 0.31
CACGAGCAAUAUUACGCAUC,-1.74 ± 0.34,
AGUCAGCAAUAUUACGUCAG,-2.65 ± 0.16,-1.86 ± 0.15
AUUAAGCAAUAUUACGCCAU,-1.86 ± 0.2,-1.52 ± 0.15
GGAAAGCAAUAUUACGCCCG,-0.767 ± 0.21,-0.0766 ± 0.23
UCUUAGCAAUAUUACGAAUC,-3.32 ± 0.5,
UGCAAGCAAUAUUACGACUA,0.0901 ± 0.093,0.525 ± 0.11
CACAAGCAAUAUUACGUUAC,-4.46 ± 0.34,-3.12 ± 0.36
GCGCAGCAAUAUUACGUGGA,-1.48 ± 0.098,-0.745 ± 0.098
GCUCAGCAAUAUUACGACCG,-1.52 ± 0.17,-0.109 ± 0.17
CUAUAGCAAUAUUACGGAGG,-2.7 ± 0.17,0.224 ± 0.16
UAAAAGCAAUAUUACGCUCA,-0.334 ± 0.11,0.128 ± 0.12
GCGUAGCAAUAUUACGGCUC,0.371 ± 0.11,0.776 ± 0.12
GAUCAGCAAUAUUACGCGGU,-2.98 ± 0.16,-1.85 ± 0.24
